{
  "source": "paper PMC10571083",
  "about": "“An Analysis of Nucleotide–Amyloid Interactions Reveals Selective Binding to Codon-Sized RNA”",
  "key": {"[1]": {"test_system": "peptide 7 amyloid (designed)", "assay": "pelleting/HPLC", "settings": "citrate-phosphate buffer, pH 3 (or pH series), room temperature, overnight, 100 uM peptide with 25 or 50 uM oligo, Kd: 50 uM peptide with 5-200 uM oligo …"}, "[2]": {"test_system": "peptide 4 amyloid (designed)", "assay": "pelleting/HPLC", "settings": "pH 3, 100 uM peptide, 50 uM RNA; citrate-phosphate buffer, pH 3 (or pH series), room temperature, overnight, 100 uM peptide with 25 or 50 uM oligo; Kd: 50 uM peptide with 5-200 uM oligo …"}, "[3]": {"biological_target": "T1, VAQAQINI-NH2 amyloid (designed)", "T1 chain": "VAQAQINI-NH2", "assay": "pelleting/HPLC; Bmax 0.147; citrate-phosphate buffer, pH 3 (or pH series), room temperature, overnight, 100 uM peptide with 25 or 50 uM oligo; Kd: 50 uM peptide with 5-200 uM oligo; supern", "settings": "single strand"}},
  "note": "No end group written: not given here.",
  "data": [
    {"molecule": "GUG [pGUG]", "values": [
      {"measurement": "Kd", "setting": "[1]; 5' phosphate", "result": 82000, "unit": "nM"},
      {"measurement": "binding signal", "setting": "[1]; pH 3, 100 uM peptide, 25 uM RNA, peptide 7 or 9 not specified, 5' phosphate", "result": "> 40", "unit": "% bound"}
    ]},
    {"molecule": "GUGUGUG [[GU]3G]", "values": [
      {"measurement": "binding signal", "setting": "[2]", "result": 100, "unit": "% bound"},
      {"measurement": "Kd", "setting": "[1]", "result": 48.6, "unit": "nM"}
    ]},
    {"molecule": "GUGU [pGUGU]", "values": [
      {"measurement": "Kd", "setting": "[1]; 5' phosphate", "result": 1290, "unit": "nM"}
    ]},
    {"molecule": "GUG [DNA pGUG]", "values": [
      {"measurement": "Kd", "setting": "[1]; 5' phosphate, DNA backbone (printed with U)", "result": 117000, "unit": "nM"}
    ]},
    {"molecule": "GUGUGU [[GU]3]", "values": [
      {"measurement": "Kd", "setting": "[1]", "result": 856, "unit": "nM"}
    ]},
    {"molecule": "GUGUG [pGUGUG]", "values": [
      {"measurement": "Kd", "setting": "[1]; 5' phosphate", "result": 74.9, "unit": "nM"}
    ]},
    {"molecule": "GUCA (ssRNA, 5' and 3' phosphate)", "note": "[pGUCAp]", "values": [
      {"measurement": "Kd", "setting": "[3]", "result": 1950, "unit": "nM"}
    ]}
  ]
}
